Data on one molecule can be found in publication doi:10.1101/2022.09.25.509440 (bioRxiv, 2022).

The target of the assay is T1, human LRP6-ECD-Fc (human, UniProt O75581 20-1370).
T1 sequence (looked up): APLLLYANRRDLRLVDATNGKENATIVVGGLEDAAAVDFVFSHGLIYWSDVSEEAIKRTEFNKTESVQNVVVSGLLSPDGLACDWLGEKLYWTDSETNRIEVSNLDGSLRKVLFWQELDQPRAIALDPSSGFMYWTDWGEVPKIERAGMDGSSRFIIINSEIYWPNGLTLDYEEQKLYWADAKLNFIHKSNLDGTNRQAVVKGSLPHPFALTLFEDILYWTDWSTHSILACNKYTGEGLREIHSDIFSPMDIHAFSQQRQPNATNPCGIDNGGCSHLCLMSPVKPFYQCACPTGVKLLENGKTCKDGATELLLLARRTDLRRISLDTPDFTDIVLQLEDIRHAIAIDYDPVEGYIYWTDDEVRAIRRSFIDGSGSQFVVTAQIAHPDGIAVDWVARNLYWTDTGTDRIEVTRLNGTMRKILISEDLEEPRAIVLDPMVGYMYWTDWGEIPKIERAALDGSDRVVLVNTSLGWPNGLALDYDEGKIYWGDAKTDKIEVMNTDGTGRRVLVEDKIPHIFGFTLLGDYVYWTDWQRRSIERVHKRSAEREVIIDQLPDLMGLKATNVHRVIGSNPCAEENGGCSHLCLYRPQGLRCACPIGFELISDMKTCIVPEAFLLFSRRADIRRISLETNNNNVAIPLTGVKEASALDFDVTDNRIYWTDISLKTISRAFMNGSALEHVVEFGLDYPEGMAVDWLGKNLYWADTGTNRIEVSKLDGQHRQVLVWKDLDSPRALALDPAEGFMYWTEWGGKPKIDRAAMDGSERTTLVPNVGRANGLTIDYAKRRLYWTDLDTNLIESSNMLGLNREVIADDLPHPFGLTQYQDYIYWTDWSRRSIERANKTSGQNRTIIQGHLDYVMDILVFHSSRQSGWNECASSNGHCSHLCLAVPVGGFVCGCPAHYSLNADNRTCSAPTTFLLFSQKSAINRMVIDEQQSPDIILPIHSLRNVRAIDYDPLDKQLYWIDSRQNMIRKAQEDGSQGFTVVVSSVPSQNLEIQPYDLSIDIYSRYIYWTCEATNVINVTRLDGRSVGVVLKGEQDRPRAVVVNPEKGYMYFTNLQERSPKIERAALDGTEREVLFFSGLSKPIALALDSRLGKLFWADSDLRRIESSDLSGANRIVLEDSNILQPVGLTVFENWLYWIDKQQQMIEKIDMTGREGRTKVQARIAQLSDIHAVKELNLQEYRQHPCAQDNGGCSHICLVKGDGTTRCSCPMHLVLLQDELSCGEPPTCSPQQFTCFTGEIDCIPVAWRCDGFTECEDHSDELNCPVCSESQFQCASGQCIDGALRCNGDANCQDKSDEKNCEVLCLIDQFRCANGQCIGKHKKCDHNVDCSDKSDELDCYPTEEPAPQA
Nature of the assay: BLI.

B1: recombinant human Wnt3a (ligand, UniProt P56704 19-352, looked up)
chain: SYPIWWSLAVGPQYSSLGSQPILCASIPGLVPKQLRFCRNYVEIMPSVAEGIKIGIQECQHQFRGRRWNCTTVHDSLAIFGPVLDKATRESAFVHAIASAGVAFAVTRSCAEGTAAICGCSSRHQGSPGKGWKWGGCSEDIEFGGMVSREFADARENRPDARSAMNRHNNEAGRQAIASHMHLKCKCHGLSGSCEVKTCWWSQPDFRAIGDFLKDKYDSASEMVVEKHRESRGWVETLRPRYTYFKVPTERDLVYYEASPNFCEPNPETGSFGTRDRTCNVSSHGIDGCDLLCCGRGHNARAERRREKCRCVFHWCCYVSCQECTRVYDVHTCK
On to B1, for which the binding result is given as “binds”.
